# Measured values published in US11149086B2, “KV1.3 binding immunoglobulins” (Ablynx N.V., priority 2014, dated 2021).
# B1: A019400003: monovalent anti-Kv1.3 Nanobody, family 1 (protein)
# VHH: EVQLVESGGGLVQAGGSLSLSCTASGGTFRNFGMGWFRQAQGKEREFVAAISRTGGHTYYQDSVKGRFTISKDNAKNILSLQMNSLKPEDTAVYYCAARFRFGDGTYYYQRAFYDFWGQGTQVTVSS
# modifications: Nanobody sequence
# Legend:
# CCR7−CD45RA− T cells = format: cell-based, human
# From the text: The purified anti-Kv1.3 Nanobodies were characterized in a T Cell-activation assay. Human T Cells were first collected from Buffy Coat blood (from healthy volunteers, Bloodbank Gent) using RosetteSep (StemCell Technologies, #15061) followed by an enrichment on Ficoll-Paque™ PLUS (GE Healthcare #17-1440-03). CCR7−CD45RA− T cells were isolated through negative selection using biotinylated antibodies against CD45RA (BD Bioscience #624008) and CCR7 (BD Bioscence #624009) in addition to the Dynabeads Biotin Binder (Invitrogen #110.47). The purity of the population was afterwards checked with anti-CD3 (eBioscience #12-0037-73); anti-CD8 (BD Bioscience #345775); anti-CD4 (BD Bioscience #345771); anti-CD45RO (BD Bioscience #555493); anti-CD45RA (BD Bioscience #550855); anti-rat IgG (Jackson ImmunoResearch Laboratories #112-116-143); anti-CD19 (BD Bioscience #555413) and anti-Human CCR7 (R&D Systems #MAB197) labeled antibodies in flow cytometric assay.
# Isolated CCR7^−CD45RA^− T Cells were then stimulated on anti-CD3 (eBioscience 16-0037-85; 540 ng/ml) coated 96-well plates at a concentration of 200 000 cells/well in absence or presence of dilution series of anti-Kv1.3 antibodies and ShK positive control (Smartox, #08SHK001). After 72 h, IFN-gamma production was measured with anti-human IFNγ antibody capture in ELISA (BD Bioscence #551221) combined with biotinylated anti-human IFNγ (BD Bioscience, #554550) and streptavidin-HRP (Dakocytomation #P0397) as detection (FIG. 11A-11B).
# In addition, also CD25 expression was measured in flow cytometry, using an anti-CD25 antibody (BD Pharmingen, cat 557138) (FIG. 11C-11D). […]
# human Kv1.3 = target: T1, human Kv1.3 (Homo sapiens, UniProt P22001); assay: IonWorks Quattro automated perforated patch clamp, Kv1.3-expressing CHL cells; format: cell-based; conditions: 6 to 7 min incubation
# T1 construct: cell lines stably expressing the full length human Kv1.3 channel
# T1 sequence (P22001 whole entry): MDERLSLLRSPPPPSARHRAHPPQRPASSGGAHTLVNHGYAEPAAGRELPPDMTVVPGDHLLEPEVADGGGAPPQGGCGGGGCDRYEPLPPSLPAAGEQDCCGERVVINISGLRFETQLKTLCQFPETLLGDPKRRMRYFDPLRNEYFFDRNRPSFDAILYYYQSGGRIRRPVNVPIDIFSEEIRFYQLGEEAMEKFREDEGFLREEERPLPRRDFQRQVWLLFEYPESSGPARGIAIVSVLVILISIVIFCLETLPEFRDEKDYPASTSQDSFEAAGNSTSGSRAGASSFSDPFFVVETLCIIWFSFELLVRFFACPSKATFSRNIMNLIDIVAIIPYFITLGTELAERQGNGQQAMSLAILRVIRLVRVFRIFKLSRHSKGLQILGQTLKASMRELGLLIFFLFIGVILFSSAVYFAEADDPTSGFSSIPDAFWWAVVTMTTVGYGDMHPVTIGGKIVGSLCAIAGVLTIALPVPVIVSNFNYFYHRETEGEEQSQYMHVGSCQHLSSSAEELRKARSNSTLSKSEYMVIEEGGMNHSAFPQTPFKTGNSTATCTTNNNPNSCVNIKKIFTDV
# From the text: Selected Nanobodies were electrophysiologically characterized on human Kv1.3 on the IonWorks automated perforated-Patch Clamp using Kv1.3-expressing Chinese Hamster Lung (CHL) cells. The procedure for evaluating the modulatory effect of the purified Nanobodies on human Kv1.3 via electrophysiological recordings is given below.
# IonWorks Quattro (Molecular Devices) is a second-generation screening instrument that provides membrane voltage control and provides a direct electrophysiological assay for screening and characterization of compounds. It is an automated, high-throughput planar perforated patch clamp that uses a 384-well PatchPlate™ substrate.
# Extracellular solution contained (in mM): 138 NaCl, 2.7 KCl, 0.9 CaCl2, 0.5 MgCl2, 8 Na2HPO4, and 1.5 KH2PO4 (pH 7.3 with NaOH, and 285-290 mOsmolar). The intracellular solution contained (in mM): 100 K-gluconate, 40 KCl, 3.2 EGTA, 5 HEPES and 3.2 MgCl2 (pH 7.3 with KOH, and 300-315 mOsmolar). These solutions were freshly made, stocked for no longer than a month at 4° C. and filtered prior to use. The selected Nanobodies were directly diluted in extracellular solution to obtain a 3 μM sample solution. […]
# The basic principles of IonWorks automated patch clamp electrophysiology are described by Schroeder et al. (J Biomol Screen 8(1):50-64, 2003). […] In PPC mode, an ensemble average of the current from up to 64 cells per well was recorded. […]
molecule,measurement,setting,value
B1,"inhibition of T-cell stimulation (IFNγ, CD25), in words",CCR7−CD45RA− T cells; anti-CD3 stimulation,did not block
same,IC50 (in M) CD25 read out,"CCR7−CD45RA− T cells; monovalent Nanobodies, plate bound anti-CD3",no effect
same,IC50 (in M) IFNγ read out,"CCR7−CD45RA− T cells; monovalent Nanobodies, plate bound anti-CD3, 72 h",no effect
same,"effect on Kv1.3 current traces on IonWorks, in words",human Kv1.3,biphasic modulatory effect
